Data as given in publication PMC8899589, “Anti-PD-L1 peptide-conjugated prodrug nanoparticles for targeted cancer immunotherapy combining PD-L1 blockade with immunogenic cell death” (Theranostics, 2022).
Residues, ends and D or L forms follow the SMILES beside them. *: point of attachment. Doxorubicin(3'-N) = COc1cccc2c1C(=O)c1c(O)c3c(c(O)c1C2=O)C[C@@](O)(C(=O)CO)C[C@@H]3O[C@H]1C[C@H](N*)[C@H](O)[C@H](C)O1

Assays:
[1] = tested on: DCs; assay: cytotoxicity against immune cells, CCK-8 assay; format: cell-based, mouse; conditions: 24 h treatment, P < 0.001
Protocol: (§1) 4T1 ([…]), HUVEC (human umbilical vein endothelial cells) and H9C2 (rat BDIX heart myoblasts) cells were maintained in RPMI-1640, Endothelial cell growth medium (EGM) or Dulbecco's Modified Eagle Medium (DMEM) supplemented with 10% (v/v) fetal bovine serum (FBS), 1% streptomycin and 100 U/mL penicillin, respectively. Bone marrow-derived macrophages (BMDMs) and bone marrow-derived dendritic cells (BMDCs) were prepared by isolating bone marrow cells from BALB/c mice. Then, bone marrow cells were differentiated into BMDMs by incubating with M-CSF (Macrophage colony-stimulating factor, 20 ng/mL) for 7 days, or were differentiated into BMDCs by culturing for 7 days in the presence of GM-CSF (20 ng/mL), IL4 (20 ng/mL) and 0.1% β-mercaptoethanol. After isolation, BMDMs and BMDCs were maintained in RPMI-1640 medium supplemented with 10% (v/v) FBS, 1% streptomycin, and 100 U/mL penicillin.
(§2) The cytotoxicity of PD-NPs was assessed by cell counting kit-8 (CCK-8) assays. First, 1 x 10^4 4T1, HUVEC, H9C2, BMDMs, BMDCs or CD8^+ T cells were seeded in 96-well cell culture plates. […] Then, the cells were further incubated with culture medium containing CCK-8 solution (10%) for 20 min, and cell viability was measured by a microplate reader with 450 nm of wavelength (VERSAmaxTM; Molecular Devices Corp., USA).

[2] = tested on: 4T1 tumor-bearing mice; assay: biodistribution by NIRF imaging; format: in vivo, mouse; conditions: 24 h after injection, 3 mg/kg based on DOX contents
Protocol: The 6-week female BALB/c mice were purchased from NaraBio (Gyeonggi-do, Republic of Korea). Mice were bred under pathogen-free conditions in the Korea Institute of Science and Technology (KIST). All experiments with animals were performed in compliance with the relevant laws and institutional guidelines of Institutional Animal Care and Use Committee (IACUC; approved number of 2020-123) in Korea Institute of Science and Technology (KIST). The in vivo biodistribution of PD-NPs was assessed in 4T1 tumor-bearing mice, which were prepared by subcutaneous inoculation of 1 x 10^7 4T1 cells. […] Noninvasive near-infrared fluorescence (NIRF) imaging was performed using an IVIS Lumina Series III system (PerkinElmer; Waltham, MA, USA) after 1, 6 and 24 h of injection. Fluorescence intensity in tumor regions was quantified using a Living Image software (PerkinElmer; Waltham, MA, USA). For ex vivo fluorescence imaging, mice were sacrificed after 24 h of injection, followed by extraction of liver, lung, spleen, kidney, heart and tumor tissues. Fluorescence intensity in tissues was analyzed using an IVIS Lumina Series III system. […] Slide-mounted tumor sections were stained with APC fluorescent dye-conjugated CD31 or PD-L1 antibody at 4 °C for 12 h, after which tumor tissues were analyzed using a Leica TCS SP8 confocal laser-scanning microscope.

[3] = tested on: macrophages; format: cell-based, mouse
Protocol: as §1, §2

[4] = target: T1, cathepsin B (Homo sapiens, UniProt P07858); assay: enzyme cleavage assay, HPLC; format: in vitro ADME
T1 construct: purchased R&D systems
Protocol: The purity and molecular weight were analyzed using HPLC and matrix-assisted laser desorption/ionization time of flight mass spectrometer (MALDI-TOF, AB Sciex TOF/TOF 5800 System, USA) with cyano-4-hydroycinnamic acid (CHCA) matrix, respectively. The average size of PD-NPs in saline (1 mg/mL) was determined via dynamic light scattering (DLS; Zetasizer Nano ZS Malvern Instruments, UK). The morphology of nanoparticles in distilled water (1 mg/mL) was observed by transmission electron microscope (TEM; CM-200, USA). As a control, the cathepsin B-cleaved PD-NPs were also observed using TEM, wherein PD-NPs (1mg/mL) were pre-incubated with cathepsin B (10 μg) at 37 °C for 24 h. Enzyme cleavage assays were performed by incubating PD-NPs (10 μM) with cathepsin B, cathepsin D, cathepsin E, caspase-3 and caspase-9 (10 μg) in MES buffer (0.1 M, pH 5.5). As a control experiment, PD-NPs (10 μM) were also pre-incubated with irreversible cathepsin B inhibitor (Z-FA-FMK; 50 μΜ) in MES buffer and then further incubated with cathepsin B. Enzyme reaction buffer was analyzed by HPLC using an acetonitrile: H2O gradient from 20:80 (0 min) to 80:20 (20 min). In vitro drug release from the PD-NPs was further investigated under both physiological and enzymatic conditions. For these analyses, PD-NPs dispersed in the mouse serum (1 mg/mL) were loaded in membrane (Molecular weight cut off: 2000 Da; Dialysis membrane Spectra/Por® 7 MWCO 2000, 18 mm; Carl Roth, Karlsruhe, Germany) in the presence or absence of cathepsin B enzyme (10 μg). After incubation, peptide-DOX or free DOX released to the outer membrane was analyzed using HPLC. Fluorescence profiles of PD-NPs (10 μM) in saline was analyzed by fluorescence spectrophotometer (F-7000, Hitachi).

[5] = tested on: 4T1 tumor-bearing mice; assay: toxicity study (body weight, blood analyses); format: in vivo, mouse; conditions: for blood analyses, hematological parameters (AST, ALT, BUN, CK, WBC, NEUT, LYMP): blood collected on day 16, treated once every three days; for body weights during treatment: treated once every three days
Protocol: The in vivo toxicity of PD-NPs was assessed by hematological analyses. Briefly, free DOX or PD-NPs (3 mg/kg based on DOX contents) were intravenously injected once every three days, and anti-PD-L1 antibody (10 mg/kg) was simultaneously i.p. injected into mice. Then, blood samples were collected from mice on day 16. For complete blood counts (CBCs), each blood sample was mixed with EDTA and a portion of each blood sample was centrifuged at 1,000 xg for 20 min, and then supernatants were stored at 4 °C. The following factors in blood samples were measured; aspartate transaminase (AST), alanine aminotransferase (ALT), blood urea nitrogen (BUN), creatinine kinase-MB (CK-MB), white blood cell (WBC), neutrophil (NEUT) and lymphocytes (LYMP).

[6] = tested on: T lymphocytes; assay: cytotoxicity against immune cells, CCK-8 assay; format: cell-based, mouse; conditions: 24 h treatment, P < 0.001
Protocol: (§3) The cytotoxicity of PD-NPs was assessed by cell counting kit-8 (CCK-8) assays. First, 1 x 10^4 4T1, HUVEC, H9C2, BMDMs, BMDCs or CD8^+ T cells were seeded in 96-well cell culture plates. After 24 h of stabilization, the PD-NPs or free DOX were treated with each cell for 24 h. Then, the cells were further incubated with culture medium containing CCK-8 solution (10%) for 20 min, and cell viability was measured by a microplate reader with 450 nm of wavelength (VERSAmaxTM; Molecular Devices Corp., USA).

[7] = tested on: 4T1 tumor-bearing mice; assay: survival analysis; format: in vivo, mouse; conditions: treated once every three days; saline group 18 days
Protocol: 4T1 tumor-bearing mice were randomly divided into four groups: (i) saline; (ii) free DOX; (iii) free DOX with anti-PD-L1 antibody; and (iv) PD-NPs. Then, mice were treated once every three days, with free DOX or PD-NPs (3 mg/kg based on DOX contents), at which time tumor volumes had reached 60 - 80 mm^3. The anti-PD-L1 antibody (10 mg/kg) was i.p. injected simultaneously with free DOX into mice. Antitumor efficacy was assessed by measuring tumor volumes, calculated as largest diameter x smallest diameter^2 x 0.53, every 2 days. For the analysis of antitumor immune responses, tumor tissues were collected on day 7, and single cells were isolated from tumor tissues using a Tumor Dissociation Kit. Following cell counting, the single cells were incubated with FcBlock at 37 °C for 5 min to avoid non-specific antibody binding. […] In order to assay the concentration of cytokines in the tumor microenvironment, the IFN-γ and TNF-α in the tumor supernatants were assessed using commercialized ELISA assay kits (Catalog # SMIF00 and SMTA00B, respectively, R&D systems).
The statistical significance between two groups was analyzed using Student's t-test. One-way analysis of variance (ANOVA) was performed for comparisons of more than two groups, and multiple comparisons were analyzed using Tukey-Kramer post-hoc test. Survival data was plotted as Kaplan-Meier curves and analyzed using log-rank test. […]

[8] = tested on: PD-L1 in IFN-γ-treated 4T1 cells; assay: PD-L1 expression by western blot; format: cell-based; conditions: 4T1 cells pre-treated with IFN-γ 20 ng/mL 24 h, then 2 μM for 24 h
Protocol: PD-L1 expression in 4T1 cells after different treatment was analyzed via western blot. Briefly, 1 × 10^6 4T1 cells were seeded in 6-well cell culture plates with RPMI medium containing 10% FBS and 1% antibiotics. After 24 h of stabilization, the cells were pre-treated with IFN-γ (20 ng/mL) for 24 h and further incubated with equal molar dose (2 μM) of free DOX, PD-NPs, anti-PD-L1 antibody or anti-PD-L1 peptide ([…]) for 24 h. Then, each cell was solubilized with lysis buffer containing 1% protease inhibitors, and the lysates were centrifuged at 10,000 rpm for 15 min to remove cell debris. Proteins in lysates were quantified via BCA protein quantification kit (Thermo Fisher scientific, USA), and then separated by sodium dodecyl sulfate-polyacrylamide (SDS-PAGE) gel electrophoresis and transferred onto polyvinylidene difluoride (PVDF) membranes. Membranes were incubated with TBS-T containing 5% bovine serum albumin (BSA) for 50 min to block non-specific IgG binding and incubated with anti-mouse PD-L1 primary antibody ([…]) for 12 h at 4 °C. Then, membranes were further incubated with HRP-conjugated anti-rabbit IgG antibody for 90 min at room temperature. Finally, immunoreactive bands were observed via enhanced chemiluminescence (ECL) system.

[9] = tested on: 4T1 cells; assay: cytotoxicity, CCK-8 assay; format: cell-based; conditions: 4T1, HUVEC and H9C2 cells, 24 h treatment
Protocol: as §3

[10] = tested on: 4T1 tumor-bearing mice; assay: in vivo tumor inhibition; design: species or system mouse; conditions: once every three days; DOX or PD-NPs i.v. 3 mg/kg based on DOX contents, antibody i.p. 10 mg/kg; saline 1655.9 ± 319.94
Protocol: 4T1 tumor-bearing mice were randomly divided into four groups: (i) saline; (ii) free DOX; (iii) free DOX with anti-PD-L1 antibody; and (iv) PD-NPs. Then, mice were treated once every three days, with free DOX or PD-NPs (3 mg/kg based on DOX contents), at which time tumor volumes had reached 60 - 80 mm^3. The anti-PD-L1 antibody (10 mg/kg) was i.p. injected simultaneously with free DOX into mice. Antitumor efficacy was assessed by measuring tumor volumes, calculated as largest diameter x smallest diameter^2 x 0.53, every 2 days. For the analysis of antitumor immune responses, tumor tissues were collected on day 7, and single cells were isolated from tumor tissues using a Tumor Dissociation Kit. Following cell counting, the single cells were incubated with FcBlock at 37 °C for 5 min to avoid non-specific antibody binding. Then, multi-parameter staining was performed for 40 min to assess the following populations in tumor tissues; (i) PD-L1^+ cancer cells (CD45^-PD-L1^+); (ii) CRT^+ cancer cells (CD45^-CRT^+); (iii) CD8^+ T cells (CD45^+CD3^+CD8^+); and (iv) regulatory T cells (Tregs; CD45^+CD3^+CD4^+CD25^+). In order to assay the concentration of cytokines in the tumor microenvironment, the IFN-γ and TNF-α in the tumor supernatants were assessed using commercialized ELISA assay kits (Catalog # SMIF00 and SMTA00B, respectively, R&D systems).

SMILES	cytotoxicity compared to free DOX [1]	accumulation in the liver tissues versus free DOX ([2]; ex vivo NIRF imaging)	accumulation at tumor tissues compared to free DOX ([2]; i.v., NIRF)	cytotoxicity compared to free DOX [3]	cleaved by cathepsin B ([4]; 10 μM, cathepsin B 10 μg, MES buffer 0.1 M pH 5.5, 6 h post-incubation, HPLC)	cleavage in cathepsin B-suppressed condition ([4]; cathepsin B with irreversible inhibitor Z-FA-FMK 50 μM, MES buffer pH 5.5, HPLC)	blood analyses, hematological parameters (AST, ALT, BUN, CK, WBC, NEUT, LYMP) [5]	body weights during treatment [5]	cytotoxicity compared to free DOX [6]	cleavage by cathepsin B ([4]; cathepsin B 10 μg, pH 5.5 MES buffer, 0, 6, 12 and 24 h, HPLC)	median survival [7]	PD-L1 expression [8]	cytotoxicity in three types of cells [9]	tumor volume on day 16 [10]
COc1cccc2c1C(=O)c1c(O)c3c(c(O)c1C2=O)C[C@@](O)(C(=O)CO)C[C@@H]3O[C@H]1C[C@H](NC(=O)CNC(=O)[C@H](CCCNC(=N)N)NC(=O)[C@H](CCCNC(=N)N)NC(=O)[C@H](Cc2ccccc2)NC(=O)[C@H](CCCNC(=N)N)NC(=O)[C@@H](NC(=O)[C@H](CCCNC(=N)N)NC(=O)[C@H](C)NC(=O)[C@H](CCCNC(=N)N)NC(=O)[C@@H](NC(=O)[C@H](CS)NC(C)=O)C(C)C)[C@@H](C)O)[C@H](O)[C@H](C)O1 [PD-NPs] (Ac-CVRARTRFRRG-{Doxorubicin(3'-N)})	significantly reduced	significantly higher accumulation	4.01-4.48 times	significantly reduced	approximately 99%	not cleaved	in normal range	gradually increased	significantly reduced	–	–	–	–	–
COc1cccc2c1C(=O)c1c(O)c3c(c(O)c1C2=O)C[C@@](O)(C(=O)CO)C[C@@H]3O[C@H]1C[C@H](NC(=O)CNC(=O)[C@H](CCCNC(=N)N)NC(=O)CNC(=O)[C@H](Cc2ccccc2)NC(=O)[C@H](CCCNC(=N)N)NC(=O)[C@@H](NC(=O)[C@H](CCCNC(=N)N)NC(=O)[C@H](C)NC(=O)[C@H](CCCNC(=N)N)NC(=O)[C@@H](NC(=O)[C@H](CS)NC(C)=O)C(C)C)[C@@H](C)O)[C@H](O)[C@H](C)O1 [CVRARTR-FGRG-DOX] (Ac-CVRARTRFGRG-{Doxorubicin(3'-N)})	–	–	–	–	–	–	–	–	–	not cleaved	–	–	–	–
COc1cccc2c1C(=O)c1c(O)c3c(c(O)c1C2=O)C[C@@](O)(C(=O)CO)C[C@@H]3O[C@H]1C[C@H](N)[C@H](O)[C@H](C)O1.Cl [free DOX, Doxorubicin hydrochloride]	–	–	–	–	–	–	severe cardiac, renal and hepatic toxicity	severe body weight loss	–	–	20 days	further increased	indiscriminate cytotoxicity with similar IC50	1028.73 ± 218.15 mm^3
